From paper PMC6613838 (Autophagy, 2019) come the findings set out here.

To fix the notation:
B1: GST-UVRAG C-terminal fragment (501–699 aa) (domain or fragment)
chain: KGHRKRASSENERLQYKTPPPSYNSALAQPVTTVPSMGETERKITSLSSSLDTSLDFSKENKKKGEDLVGSLNGGHANVHPSQEQGEALSGHRATVNGTLLPSEQAGSASVQLPGEFHPVSEAELCCTVEQAEEIIGLEATGFASGDQLEAFNCIPVDSAVAVECDEQVLGEFEEFSRRIYALNENVSSFRRPRRSSDK
B2: His-CSNK1A1 (enzyme)
chain: MASSSGSKAEFIVGGKYKLVRKIGSGSFGDIYLAINITNGEEVAVKLESQKARHPQLLYESKLYKILQGGVGIPHIRWYGQEKDYNVLVMDLLGPSLEDLFNFCSRRFTMKTVLMLADQMISRIEYVHTKNFIHRDIKPDNFLMGIGRHCNKLFLIDFGLAKKYRDNRTRQHIPYREDKNLTGTARYASINAHLGIEQSRRDDMESLGYVLMYFNRTSLPWQGLKAATKKQKYEKISEKKMSTPVEVLCKGFPAEFAMYLNYCRGLRFEEAPDYMYLRQLFRILFRTLNHQYDYTFDWTMLKQKAAQQAASSSGQGQQAQTPTGKQTDKTKSNMKGF
B3: GST-UVRAG FL (natural protein)
chain: MSASASVGGPVPQPPPGPAAALPPGSAARALHVELPSQQRRLRHLRNIAARNIVNRNGHQLLDTYFTLHLCSTEKIYKEFYRSEVIKNSLNPTWRSLDFGIMPDRLDTSVSCFVVKIWGGKENIYQLLIEWKVCLDGLKYLGQQIHARNQNEIIFGLNDGYYGAPFEHKGYSNAQKTILLQVDQNCVRNSYDVFSLLRLHRAQCAIKQTQVTVQKIGKEIEEKLRLTSTSNELKKKSECLQLKILVLQNELERQKKALGREVALLHKQQIALQDKGSAFSAEHLKLQLQKESLNELRKECTAKRELFLKTNAQLTIRCRQLLSELSYIYPIDLNEHKDYFVCGVKLPNSEDFQAKDDGSIAVALGYTAHLVSMISFFLQVPLRYPIIHKGSRSTIKDNINDKLTEKEREFPLYPKGGEKLQFDYGVYLLNKNIAQLRYQHGLGTPDLRQTLPNLKNFMEHGLMVRCDRHHTSSAIPVPKRQSSIFGGADVGFSGGIPSPDKGHRKRASSENERLQYKTPPPSYNSALAQPVTTVPSMGETERKITSLSSSLDTSLDFSKENKKKGEDLVGSLNGGHANVHPSQEQGEALSGHRATVNGTLLPSEQAGSASVQLPGEFHPVSEAELCCTVEQAEEIIGLEATGFASGDQLEAFNCIPVDSAVAVECDEQVLGEFEEFSRRIYALNENVSSFRRPRRSSDK

One assay addresses His-SMURF1 (E. coli) (human, UniProt Q9HCE7-2 1-731). Nature of the assay: pull-down.
The target of the assay “GST-UVRAG FL” is B3. The assay can be described thus: pull-down.

Take B1: the binding result with His-SMURF1 (E. coli) was “binds”.

B2: the binding result with GST-UVRAG FL is listed as “binds”.

Turning to B3, the binding result with His-SMURF1 (E. coli) was “binds”.
